# Measurements published in patent US6458943 (INSTITUT NATIONAL DE LA SANTE ET DE LA RECHERCHE MEDICALE, dated 2002).
# T1: hD53 interactor (GAL4 activation domain fusion, pACT2hD53) (human, UniProt P04386 768-881 (Saccharomyces cerevisiae entry))
# T1 construct: range 768-881
# T1 sequence: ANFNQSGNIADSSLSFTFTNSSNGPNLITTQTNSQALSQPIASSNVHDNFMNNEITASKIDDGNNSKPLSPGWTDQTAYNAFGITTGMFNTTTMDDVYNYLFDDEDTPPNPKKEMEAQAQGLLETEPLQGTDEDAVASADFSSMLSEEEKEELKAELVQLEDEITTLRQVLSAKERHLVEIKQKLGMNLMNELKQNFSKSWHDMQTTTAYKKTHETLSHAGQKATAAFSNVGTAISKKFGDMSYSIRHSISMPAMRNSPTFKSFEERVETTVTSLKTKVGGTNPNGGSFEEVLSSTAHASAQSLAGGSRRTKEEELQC
# T2: histidyl t-RNA synthetase library interactor (pAD-GAL4 construct, EBML accession no. Z 11518) (human, UniProt P04386 761-881; P12081 2-509, limits assumed)
# T2 construct: False positive of the Hf7c screen
# T2 sequence (looked up): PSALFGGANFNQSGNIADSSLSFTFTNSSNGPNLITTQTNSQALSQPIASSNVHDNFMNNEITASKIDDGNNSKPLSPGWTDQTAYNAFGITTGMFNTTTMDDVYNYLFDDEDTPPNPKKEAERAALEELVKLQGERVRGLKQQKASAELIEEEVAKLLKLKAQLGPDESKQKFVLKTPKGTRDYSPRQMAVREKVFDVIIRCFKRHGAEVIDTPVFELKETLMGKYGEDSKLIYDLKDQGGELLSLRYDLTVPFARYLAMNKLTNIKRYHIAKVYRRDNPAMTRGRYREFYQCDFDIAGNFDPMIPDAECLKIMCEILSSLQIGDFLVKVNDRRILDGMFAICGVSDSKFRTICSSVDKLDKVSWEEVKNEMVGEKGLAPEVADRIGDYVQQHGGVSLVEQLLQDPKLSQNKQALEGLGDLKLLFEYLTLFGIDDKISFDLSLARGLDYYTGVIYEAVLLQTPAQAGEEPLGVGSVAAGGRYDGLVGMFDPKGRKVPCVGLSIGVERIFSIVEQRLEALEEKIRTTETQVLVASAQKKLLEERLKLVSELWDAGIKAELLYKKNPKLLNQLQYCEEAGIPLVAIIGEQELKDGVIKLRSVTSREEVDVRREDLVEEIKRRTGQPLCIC
# T3: mD52(1-163) interactor (GAL4 activation domain fusion, pACT2mD52(1-163)) (mouse, UniProt P04386 768-881 (Saccharomyces cerevisiae entry))
# T3 construct: range 768-881
# T3 sequence: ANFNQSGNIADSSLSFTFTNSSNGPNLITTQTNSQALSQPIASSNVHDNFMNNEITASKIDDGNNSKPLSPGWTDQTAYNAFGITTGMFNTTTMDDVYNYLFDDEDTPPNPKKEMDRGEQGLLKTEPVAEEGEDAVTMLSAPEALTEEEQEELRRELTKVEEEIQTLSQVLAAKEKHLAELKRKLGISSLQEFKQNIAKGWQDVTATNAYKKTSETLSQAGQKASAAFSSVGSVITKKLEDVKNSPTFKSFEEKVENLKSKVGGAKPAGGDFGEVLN
# T4: hD52 interactor (GAL4 activation domain fusion, pAD-GAL4hD52) (human, UniProt P04386 761-881 (Saccharomyces cerevisiae entry))
# T4 construct: range 761-881; also called hD52^c
# T4 sequence: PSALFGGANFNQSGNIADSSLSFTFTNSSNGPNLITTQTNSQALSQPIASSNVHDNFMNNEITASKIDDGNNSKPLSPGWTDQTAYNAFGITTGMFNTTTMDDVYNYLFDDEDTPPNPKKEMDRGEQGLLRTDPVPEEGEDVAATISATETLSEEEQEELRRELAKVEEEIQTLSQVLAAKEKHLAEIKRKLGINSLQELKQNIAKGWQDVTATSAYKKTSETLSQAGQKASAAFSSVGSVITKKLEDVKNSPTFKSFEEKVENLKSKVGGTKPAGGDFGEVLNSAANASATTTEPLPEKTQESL
# B1: mD52(1-95) bait (GAL4 DNA-binding domain fusion, pAS2-1mD52(1-95)) (other)
# chain: MKLLSSIEQACDICRLKKLKCSKEKPKCAKCLKNNWECRYSPKTKRSPLTRAHLTEVESRLERLEQLFLLIFPREDLDMILKMDSLQDIKALLTGLFVQDNVNKDAVTDRLASVETDMPLTLRQHRISATSSSEESSNKGQRQLTVSMDRGEQGLLKTEPVAEEGEDAVTMLSAPEALTEEEQEELRRELTKVEEEIQTLSQVLAAKEKHLAELKRKLGISSLQEFKQNIAKGWQDVTATNA
# notes: also called N-terminal half of mD52
# B2: hD52 library interactor, pAD-GAL4 clone beginning at nt 60 of the hD52 cDNA (<Met1) (other)
# chain: T4 sequence
# notes: range 761-881; also called nt 60 (<Met^1)
# B3: RING10 proteasome subunit library interactor (pAD-GAL4 construct, GenBank accession no. X62598) (other, UniProt P04386 761-881, looked up)
# chain: PSALFGGANFNQSGNIADSSLSFTFTNSSNGPNLITTQTNSQALSQPIASSNVHDNFMNNEITASKIDDGNNSKPLSPGWTDQTAYNAFGITTGMFNTTTMDDVYNYLFDDEDTPPNPKKETTTLAFKFQHGVIAAVDSRASAGSYISALRVNKVIEINPYLLGTMSGCAADCQYWERLLAKECRLYYLRNGERISVSAASKLLSNMMCQYRGMGLSMGSMICGWDKKGPGLYYVDEHGTRLSGNMFSTGSGNTYAYGVMDSGYRPNLSPEEAYDLGRRAIAYATHRDSYSGGVVNMYHMKEDGWVKVESTDVSDLLHQYREANQ
# notes: False positive of the Hf7c screen
# B4: hD52 bait (GAL4 DNA-binding domain fusion, pAS2-1hD52) (other)
# chain: MKLLSSIEQACDICRLKKLKCSKEKPKCAKCLKNNWECRYSPKTKRSPLTRAHLTEVESRLERLEQLFLLIFPREDLDMILKMDSLQDIKALLTGLFVQDNVNKDAVTDRLASVETDMPLTLRQHRISATSSSEESSNKGQRQLTVSMDRGEQGLLRTDPVPEEGEDVAATISATETLSEEEQEELRRELAKVEEEIQTLSQVLAAKEKHLAEIKRKLGINSLQELKQNIAKGWQDVTATSAYKKTSETLSQAGQKASAAFSSVGSVITKKLEDVKNSPTFKSFEEKVENLKSKVGGTKPAGGDFGEVLNSAANASATTTEPLPEKTQESL
# notes: Fusion expressed in yeast; also called full-length hD52 bait
# B5: hD53 library interactor, pAD-GAL4 clone beginning at nt 204 of the hD53 cDNA (Leu9) (other)
# chain: PSALFGGANFNQSGNIADSSLSFTFTNSSNGPNLITTQTNSQALSQPIASSNVHDNFMNNEITASKIDDGNNSKPLSPGWTDQTAYNAFGITTGMFNTTTMDDVYNYLFDDEDTPPNPKKELETEPLQGTDEDAVASADFSSMLSEEEKEELKAELVQLEDEITTLRQVLSAKERHLVEIKQKLGMNLMNELKQNFSKSWHDMQTTTAYKKTHETLSHAGQKATAAFSNVGTAISKKFGDMSYSIRHSISMPAMRNSPTFKSFEERVETTVTSLKTKVGGTNPNGGSFEEVLSSTAHASAQSLAGGSRRTKEEELQC
# notes: range 761-881; The clone lacks hD53 residues 1-8 (starts at Leu9); Found with the hD53 bait in Y190 and with the hD52 bait in Hf7c; also called nt 204 (Leu^9)
# B6: mD52 bait (GAL4 DNA-binding domain fusion, pAS2-1mD52) (other, not shown: small tags and cut ends)
# chain: MDRGEQGLLKTEPVAEEGEDAVTMLSAPEALTEEEQEELRRELTKVEEEIQTLSQVLAAKEKHLAELKRKLGISSLQEFKQNIAKGWQDVTATNAYKKTSETLSQAGQKASAAFSSVGSVITKKLEDVKNSPTFKSFEEKVENLKSKVGGAKPAGGDFGEVLNSTANATSTMTTEPPPEQMTESP
# notes: Fusion expressed in yeast; also called full-length mD52 bait
# Experiments:
# [1] = biological target: T1, hD53 interactor (GAL4 activation domain …); test: yeast two-hybrid in Y190, β-galactosidase assay
# Procedure: Interactions between baits and interactors were assessed by qualitatively and/or quantitatively determining HIS3 and lacZ reporter gene activity in Y190 co-transfectants. Reporter gene activities were assessed qualitatively by observing the growth and color development of Y190 co-transfectants on solid SD media lacking His, Trp and Leu (SD/-His-Trp-Leu), and incorporating 0.07 M potassium phosphate pH 7, 35 mM 3-AT, and 40 µg/ml X-gal. For quantitative assessment of interactions, β-galactosidase activity was measured using the substrate o-nitrophenyl β-D-galactopyranoside (ONPG) in liquid cultures (SD/-His-Trp-Leu +35 mM 3-AT) of Y190 co-transfectants.
# [2] = biological target: B4; test: yeast two-hybrid screening of a human breast carcinoma cDNA library in Hf7c (His+)
# Procedure: (§1) Transformants were plated onto solid SD/-His-Trp-Leu (incorporating 35 mM 3-AT in the case of Y190 transformants) and incubated for up to 14 days at 30° C. After 3 initial days of growth, plates were inspected daily, and His+ colonies were transferred to SD/-His-Trp-Leu +0.07 M potassium phosphate pH 7+40 µg/ml X-gal plates which incorporated 35 mM 3-AT in the case of Y190 co-transformants. Colonies which remained His+, and in the case of Y190 co-transformants, were also lacZ+, were re-streaked onto fresh plates to check that all colonies were of uniform phenotype. After 6 days incubation at 30° C., yeast colonies were directly harvested, and plasmid DNA was isolated and used to transfect XL1 Blue. Mini-preparations of plasmid DNA were performed for at least 5 XL1 Blue colonies per transfection, with the results of restriction digests differentiating potential interactors from bait plasmids. […] Phenotypes of resulting co-transfectants were assayed quantitatively and/or qualitatively as described above.
# [3] = biological target: B4; test: yeast two-hybrid, retransfection of Hf7c
# Procedure: as §1
# [4] = biological target: T5, eukaryotic initiation factor 4AII library interactor (pAD-GAL4 construct, DNA Database of Japan accession no. … (human, UniProt P04386 761-881; Q14240 1-407, limits assumed); test: yeast two-hybrid, retransfection of Hf7c
# T5 construct: False positive of the Hf7c screen
# Procedure: as §1
# [5] = biological target: T2, histidyl t-RNA synthetase library …; test: yeast two-hybrid, retransfection of Hf7c
# Procedure: as §1
# [6] = biological target: T6, hD53 bait (GAL4 DNA-binding domain fusion, pAS2-1hD53) (human, UniProt P04386 1-147 (Saccharomyces cerevisiae entry)); test: yeast two-hybrid screening of a human breast carcinoma cDNA library in Y190 (His+ lacZ+)
# T6 construct: Fusion expressed in yeast; also called full-length hD53 bait
# [7] = biological target: T3, mD52(1-163) interactor (GAL4 activation …); test: yeast two-hybrid, Y190 co-transfectants, HIS3/lacZ reporters; interactor (GAL4-AD fusion) against bait (GAL4-DB fusion)
# Procedure: (§2) Interactions between baits and interactors were assessed by qualitatively and/or quantitatively determining HIS3 and/or lacZ reporter gene activity in Y190 co-transfectants.
# (§3) Interactions between D52-like proteins within the yeast two-hybrid system, as measured by quantitative β-galactosidase assays. […] Three (or two*) colonies from each co-transfected Y190 strain were cultured in the absence of histidine, and assayed separately for β-galactosidase activity (see Methods). The mean number of β-galactosidase activity units obtained for each co-transfection is presented, ± the standard error.
# [8] = biological target: T4, hD52 interactor (GAL4 activation domain …); test: as above
# Procedure: as §2, §3
# [9] = biological target: T1, hD53 interactor (GAL4 activation domain …); test: as above
# Procedure: as §2, §3
# [10] = biological target: T7, hD54+ins2 interactor (GAL4 activation domain fusion, pACT2hD54+ins2) (human, UniProt P04386 768-881 (Saccharomyces cerevisiae entry)); test: as above
# T7 construct: range 768-881
# Procedure: as §2, §3
# [11] = biological target: T8, hD54-ins2 interactor (GAL4 activation domain fusion, pACT2hD54-ins2) (human, UniProt P04386 768-881 (Saccharomyces cerevisiae entry)); test: as above
# T8 construct: range 768-881
# Procedure: as §2, §3
binder,measurement,setting,value
B1,binding result,[1],binds
B2,binding result,[2],binds
B3,binding result,[3],no binding
B4,binding result,[4],no binding
same,binding result,[5],no binding
B5,binding result,[6],binds
same,binding result,[2],binds
B6,binding result,[7],binds
same,binding result,[8],binds
same,binding result,[9],binds
same,binding result,[10],binds
same,binding result,[11],binds
